Results as given in US11407840B2, “Antibodies to M(H)DM2/4 and their use in diagnosing and treating cancer” (NomoCan Pharmaceuticals LLC, priority 2017, dated 2022).
Entries after “also recorded” stand apart in the source; their conditions may differ.

B1: NMC-103: mouse monoclonal antibody, IgG1 isotype, binds NMC-P1 (SEQ ID NO:1); VH SEQ ID NO:36, VL SEQ ID NO:37 (antibody, V domains shown)
VH: EVQLQESGGGLVQPGGSLRLSCTTSGFTFTHYYMSWVRQPPGKALEWLGFIRNKAKGYTAEYSASVKGRFTISRDNSQSILYLQMNTLRPEDSATYYCARDIGDNWGQGTLVTVSS
VL: DIVMTQAAFSNPVTLGTSASISCRSSKNLLHSNGITYLYWYLQRPGQSPQLLISRVSNLASGVPNRFSGSESGTDFTLRISRVEAEDVGVYFCAQLLELPYTFGGGTKLEIK
modifications: mAb NMC-103 Heavy Chain Variable Region; mAb NMC-103 Light Chain Variable Region
B2: NMC-204: mouse monoclonal antibody, IgG3 isotype, binds NMC-P2 (SEQ ID NO:2); VH SEQ ID NO:38, VL SEQ ID NO:39 (antibody, V domains shown)
VH: EVQLQESGSVLVRPGASVKLSCKASGDTLSGSWMHWAMQRPGQGLEWIGEIHLNRGTTNYNEKFKGKATVTVDTSSSTAYVDLSSLTSEDSAVYYCARSPGFAYWGQGTLVTVSA
VL: GIVMTQAAPSVPVTPGESVSISCRSSKSLLHSNGNSYLYWFLQRPGQSPQLLIYRMSNLASGVPDRFSGSGSGTAFTLRITRVEAEDVGVYYCMQHLEYPFTFGSGTKLEIK
modifications: mAb NMC-204 Heavy Chain Variable Region; mAb NMC-204 Light Chain Variable Region

Columns and labels:
Type in all cases: binding
[1] = target: NMC-P2 peptide (SEQ ID NO:2), amino acids 15-25 of HDM2 (Homo sapiens, UniProt Q00987); test: Peptide-ELISA, NMC-P2 peptide; details: 5 μg/ml peptide dried on plate; OD 450 nm
Protocol: (§1) Peptide-ELISA Methodology: 5 μg/ml of NMC-P1, NMC-P2 or NMC-P3 peptide antigen was dried onto a 96-well ELISA plate overnight. Plates were then blocked with 5% BSA in 1× phosphate-buffered saline (PBS) (100 ? /well) for 2 hours at room temperature. Microplate wells were then washed 5 times with 300 ? of ice cold 1× PBS. Appropriate dilutions of monoclonal antibodies NMC-103, NMC-204 or NMC-303 in 1% bovine serum albumin (BSA) in PBS solution were then incubated with their corresponding peptides (NMC-P1, NMC-P2 or NMC-P3, respectively) at room temperature. After 2 hours, wells were washed 5 times with 300 ? ? ice-cold PBS/well and 100 ? secondary antibody (HRP-labeled Goat anti-Mouse F(ab′)2 H&L cross-adsorbed secondary antibody (HRP-GaM F(ab′)2), ThermoFisher, Cat. No. A24524) diluted 1:2500 to 1:5000 in PBS-1% BSA solution were added and the incubation continued at room temperature. After 1 hour, the wells were washed again 5 times with 200 ? of ice-cold PBS and 50 μiL of the TMB Substrate Solution (1-StepTM Ultra TMB-ELISA, ThermoFisher, Cat. No. 34028) were added to each well and color was allowed to develop for 30 minutes at room temperature. The reaction was stopped by addition of 50 μ ? ? of stop solution (ThermoFisher, Cat. No. SSO4) to each well and absorbance of each well was read immediately for optical density (OD) at 450 nm.

[2] = target: T1, recombinant full-length HDM2 protein (GST tagged) (Homo sapiens, UniProt Q00987); test: Western blot (immunoblot); details: 1 μg/well protein; band at approximately 83 kD; FIG. 2
T1 construct: reacted with the recombinant full-length HDM2 protein; purchased Abcam ab188727
T1 sequence (Q00987 whole entry): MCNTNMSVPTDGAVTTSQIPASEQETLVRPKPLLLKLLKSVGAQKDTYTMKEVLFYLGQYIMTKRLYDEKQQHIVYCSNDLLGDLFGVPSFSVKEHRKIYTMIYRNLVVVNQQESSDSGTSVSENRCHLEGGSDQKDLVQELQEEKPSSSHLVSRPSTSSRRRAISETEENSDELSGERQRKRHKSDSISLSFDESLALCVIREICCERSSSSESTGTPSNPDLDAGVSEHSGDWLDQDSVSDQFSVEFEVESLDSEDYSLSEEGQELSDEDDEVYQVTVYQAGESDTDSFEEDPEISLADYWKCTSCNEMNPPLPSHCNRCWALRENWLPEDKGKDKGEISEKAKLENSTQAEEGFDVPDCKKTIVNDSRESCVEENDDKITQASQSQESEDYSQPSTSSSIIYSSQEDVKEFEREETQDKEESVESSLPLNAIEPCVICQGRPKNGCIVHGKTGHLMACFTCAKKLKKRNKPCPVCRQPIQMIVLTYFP
Protocol: Western Blot: As for immunoblots, 1 μg/well of recombinant FIDM2 protein (GST tagged, Abeam, Cat. No. ab188727) was separated on 8-16% sodium dodecyl sulfate (SDS) polyacrylamide gel and proteins were then transferred to polyvinylidene difluoride (PVDF) membrane. The membrane was blocked with 5% milk followed by incubation with monoclonal antibody NMC-103, NMC-204 or NMC-303 at 1 μg/πι ? in 1% milk in PBS for 2 hours. The membrane was then washed×3 times (10 minutes each) and incubated for 1 hour with corresponding HRP-conjugated secondary antibody (Goat anti-Mouse IgG (H&L), F(ab′)2 Frag Cross-adsorbed HRP (HRP-GaM F(ab′)2), ThermoFisher, Cat. No. A24524) diluted 1:5000 in 1% BSA-PBS. The membrane was then washed×3 times and incubated with Pierce ECL Plus Western Blotting Substrate (ThermoFisher, Cat. No. #32132) for 10 min before developing on a LICOR Scanner.

[3] = test system: mouse Lewis Lung LL/2 cancer cells; test: Flow cytometry, EDTA versus trypsin, intact versus permeabilized cells; details: antibody 5 μg/ml, FIG. 11
Protocol: Flow Cytometry Methodology: Cells that had been allowed to grow to about 80% confluency in 25 cm^2 tissue culture flasks were released with either EDTA (10 mmols; pH7.2; 5 min, 37° C.) or Trypsin (Gibco TrypLE Express), fixed with freshly made 4% buffered (pH 7.4) paraformaldehyde for 1 h at room temperature, washed several times with a large volume of ice-cold PBS, and blocked for 30 minutes at room temperature with 5% human serum albumin in PBS (intact, non-permeabilized cells). After establishing viability, the cell number was adjusted to 10^6 cells/ml and kept in ice-cold PBS until staining. Another set of the same cells was released with either EDTA or Trypsin and fixed with 4% buffered paraformaldehyde as above, then washed and blocked with 5% human serum albumin in PBS, and was treated separately with Triton X-100 (0.1% in PBS) (International Biotechnologies Inc. 07100) for 5 minutes at room temperature for membrane permeabilization. After washing off the Triton X-100 solution with PBS the cells were adjusted to 10^6 cells/ml and stored in ice-cold PBS. Cells (10^6/ml) from each preparation were then incubated either with 5 μg/ml of mAb to Na+/K+ ATPase ? -1 (Abeam, Cat. No. ab2826), 5 μg/ml of mAb NMC-103, or 5 μg/ml of mAb NMC-204 for 90 min at room temperature. Following primary antibody incubation, cells were washed 3 times with ice-cold PBS followed by incubation with rabbit anti-mouse PE-Cy5 labeled secondary antibody (PE-Cy5-RaM IgG (H&L); Invitrogen, Cat. No. M35018) at room temperature. Sixty minutes later the cells were washed 3 times with PBS and subjected to flow cytometry analysis (BD Canto Flow Cytometry). Controls to establish background fluorescence included the analysis of samples of unstained cells as well as cells that had been processed with secondary antibody under the same conditions as used in the experimental samples.
To further validate that the epitopes of the plasma membrane M(H)DM2 are in fact extracellularly accessible sequences on cancer cells, binding of mAbs NMC-103, NMC-204 and NMC-303 was performed on mouse Lewis Lung LL/2 cancer cells under treatment conditions of EDTA versus trypsin. Both of these conditions were also tested on intact versus permeabilized cells. FIG. 11 panels A, B and C present flow cytometry data on % cells stained with mAbs NMC-103, NMC-204 and anti-Na+/K+ ATPase ? -1, respectively. Each antibody was reacted with cells from four treatment conditions: EDTA-treated intact cells, EDTA-treated permeabilized cells, trypsin-treated intact cells, trypsin-treated permeabilized cells. […] However, when trypsin-treaded cells were permeabilized, the above reduction in binding was compensated by reactivity of the antibodies to intracellular MDM2 or Na+/K+ ATPase a-1.

[4] = target: NMC-P1 peptide (SEQ ID NO:1), amino acids 1-15 of HDM2 (Homo sapiens, UniProt Q00987); test: Peptide-ELISA, NMC-P1 peptide; details: 5 μg/ml peptide dried on plate; OD 450 nm
Protocol: as §1

[5] = EDTA-treated permeabilized cells (Triton X-100)

Row | Molecule | binding to NMC-P2 peptide (peptide-ELISA) [1] | reactivity with recombinant full-length HDM2-GST protein in immunoblot [2] | % cells stained (flow cytometry) ([3]; EDTA-treated intact cells) [%] | % cells stained (flow cytometry) [3, 5] [%] | % cells stained (flow cytometry) ([3]; trypsin-treated intact cells) [%] | binding to NMC-P1 peptide (peptide-ELISA) [4]
1 | B1 | did not bind | reacted | 70.4 | 75.8 | 36.8 | bound; also recorded: strong binding
2 | B2 | bound; also recorded: strong binding | reacted | 51.2 | 52.85 | 27 | did not bind
